Where a chain is given by its changes, count along the chain named.
B1: HPV16 E2 I73L (natural protein)
chain: METLCQRLNVCQDKILTHYENDSTDLRDHIDYWKHMRLECAIYYKAREMGFKHINHQVVPTLAVSKNKALQALELQLTLETIYNSQYSNEKWTLQDVSLEVYLTAPTGCIKKHGYTVEVQFDGDICNTMHYTNWTHIYICEEASVTVVEGQVDYYGLYYVHEGIRTYFVQFKDDAEKYSKNKVWEVHAGGQVILCPTSVFSSNEVSSPEIIRQHLANHPAATHTKAVALGTEETQTTIQRPRSEPDTGNPCHTTKLLHRDSVDSAPILTAFNSSHKGRINCNSNTTPIVHLKGDANTLKCLRYRFKKHCTLYTAVSSTWHWTGHNVKHKSAIVTLTYDSEWQRDQFLSQVKIPKTITVSTGFMSI
modifications: 35S-labeled
notes: source: in vitro translated (TNT Coupled Reticulocyte Lysate System, Promega), 35S-labeled
B2: HPV16 E2 R37K (natural protein)
chain: B1 chain with R37K, L73I
modifications: 35S-labeled
notes: as for B1

Molecular target: T1, Purified FLAG-tagged Brd4 (UniProt O60885 1-1362)
T1 construct: source: purified, described previously [13]
Assay: pull-down
Settings: one partner purified

Row | Binder | percent of wildtype E2 binding
1 | B1 | < 20 % of wildtype E2 binding
2 | B2 | < 20 % of wildtype E2 binding

From article PMC3836737, “Brd4 Is Displaced from HPV Replication Factories as They Expand and Amplify Viral DNA” (PLoS Pathogens, 2013)
